Target: TmCad1(EC12-cyto), partial Tenebrio molitor cadherin from extracellular domain 12 through the end of the cytoplasmic domain, expressed on insect cells (Tenebrio molitor)
Assay: cell-based or functional assay

Cry3Aa protoxin purified from sporulated cultures of Bacillus thuringiensis var. tenebrionis (from UniProt P0A379 1-644)
cytotoxicity (propidium iodide staining of GFP-positive transfected Hi5 cells, flow cytometry): 25%
cytotoxicity (propidium iodide staining of GFP-positive transfected S2 cells, flow cytometry): 40%

Reference: US20090175974A1
